The data set concerns the molecule itself. Put plainly: nonreducing SDS-PAGE + mass spectrometry of the band.

B1: native Bet v 1d in aqueous birch pollen extract (BPE) (natural protein, UniProt P43177 1-160, looked up)
chain: MGVFNYEIETTSVIPAARLFKAFILDGDNLVPKVAPQAISSVENIEGNGGPGTIKKINFPEGFPFKYVKDRVDEVDHTNFKYNYSVIEGGPVGDTLEKISNEIKIVATPDGGCVLKISNKYHTKGNHEVKAEQVKASKEMGETLLRAVESYLLAHSDAYN
The stoichiometry N is the number of molecules, sites or subunits per partner or assembly. As to B1, the “stoichiometry N” value was found to be 2.
